{"source": "paper PMC5347340", "about": "(2017)", "key": {"[1]": {"biological_target": "BG505 gp140.681.R1-1NOG trimer (HIV-1 BG505, UniProt Q2N0S6)", "assay": "BLI"}, "[2]": {"biological_target": "BG505 gp140.681.R1-1V6H trimer (HIV-1 BG505, UniProt Q2N0S6)", "assay": "BLI"}}, "data": [{"binder": "PGDM1400 (protein) chain 1: DFVLTQSPHSLSVTPGESASISCKSSHSLIHGDRNNYLAWYVQKPGRSPQLLIYLASSRASGVPDRFSGSGSDKDFTLKISRVETEDVGTYYCMQGRESPWTFGQGTKVDIKRTVAAPSVFIFPPSDEQLKSGTASVVCLLNNFYPREAKVQWKVDNALQSGNSQESVTEQDSKDSTYSLSSTLTLSKADYEKHKVYACEVTHQGLSSPVTKSFNRGEC chain 2: QAQLVQSGPEVRKPGTSVKVSCKAPGNTLKTYDLHWVRSVPGQGLQWMGWISHEGDKKVIVERFKAKVTIDWDRSTNTAYLQLSGLTSGDTAVYYCAKGSKHRLRDYALYDDDGALNWAVDVDYLSNLEFWGQGTAVTVSSASTKGPSVFPLAPSSKSTSGGTAALGCLVKDYFPEPVTVSWNSGALTSGVHTFPAVLQSSGLYSLSSVVTVPSSSLGTQTYICNVNHKPSNTKVDKKVEPKSCD", "values": [{"measurement": "Kd", "setting": "[1]", "result": 4.7, "unit": "nM"}, {"measurement": "Kd", "setting": "[2]", "result": 5.1, "unit": "nM"}]}]}
